Results on 5 substances are retold here after patent US7255859.

The target of test [1] is Glutathione-S-transferase modified with the HA epitope (GST-HA) (human influenza virus). The test can be described thus: Western blot, 4 ng GST-HA per lane, primary antibody titrated; chemiluminescence. For orientation: A western blot detects proteins with antibodies after separation by electrophoresis.
In test [2] the target is Green-fluorescent protein modified with the HA epitope (GFP-HA) (human influenza virus) [GFP: P42212]. Briefly: immunoprecipitation of 50 ng GFP-HA with protein G, then Western blot.
In test [3] the target is epitope … (98-106) of the haemagglutinin of the human influenza virus (human influenza virus). Briefly: rounded affinity in the description; antigen not given.
For test [4], the target named is Bio-C-HA (acetyl-… (ε-biotinoyl)-amide) (human influenza virus). The test can be described thus: SPR (BIACORE), biotinylated peptide on streptavidin chip, antibody in solution. (Surface plasmon resonance follows binding to a sensor surface in real time, without labels.)
For test [5], the target named is Bio-N-HA (biotinoyl-ε-Aca-…-amide) (human influenza virus). The test is described as above.
For test [6], the target named is Glutathione-S-transferase modified with the HA epitope (GST-HA) (human influenza virus). Briefly: Western blot of serially diluted GST-HA; 0.1 µg/ml 3F10 against 1 µg/ml 12CA5; chemiluminescence.
For test [7] the target is unchanged. The test can be described thus: Western blot of serially diluted GST-HA with antibody-peroxidase conjugate (100 ng/ml); chemiluminescence.
For test [8] the target is unchanged. The test can be described thus: Western blot of serially diluted GST-HA with antibody-peroxidase conjugate (20 mU/ml); chemiluminescence.

In test [1], mAB R 3F10 (antibody) yielded an antibody concentration at signal saturation of 125 ng/mL and a fold lower antibody concentration for comparable signals against clone 12CA5 of 20 fold. Further, the fold lower antibody quantity to precipitate the antigen against clone 12CA5 in test [2] was under 20 fold. In test [3], this substance yielded a Ka of 1e+10 M⁻¹; a fold higher affinity than 12CA5 and BabCo of 30 fold. Besides, in test [4], the Ka stood at 1.2e+10 M⁻¹; the koff (in general, a measure of how fast the partners let go of each other) is 4.8e-05 s⁻¹; the association rate constant (kon) (commonly the rate constant with which the complex forms) came to 590000 M⁻¹ s⁻¹. In test [5], this substance had a Ka of 6.8e+09 M⁻¹, a dissociation rate constant (koff) of 9.1e-05 s⁻¹ and a kon of 620000 M⁻¹ s⁻¹. Besides, the fold lower detectable amount of GST-HA against clone 12CA5 in test [6] was determined as 30 fold.

Regarding anti-HA BabCo (antibody), the Ka in test [3] was found to be 1e+07 M⁻¹. In test [4], this substance returned a Ka of 9.3e+06 M⁻¹, an off-rate (koff) of 0.001 s⁻¹ and an on-rate (kon) of 9500 M⁻¹ s⁻¹. Besides, in test [5], the Ka came out at 2.3e+07 M⁻¹, the koff was 0.0005 s⁻¹ and the on-rate (kon) was 12000 M⁻¹ s⁻¹.

In test [7], “peroxidase conjugate of the clone 12CA5 (antibody)” had a detection limit of 1 ng GST-HA.

In the case of mAB 12CA5 (antibody), the antibody concentration at which the antibody becomes the limiting factor in test [1] was under 2000 ng/mL. Moreover, the Ka in test [3] turned out to be 1e+08 M⁻¹; in test [4], 9.2e+07 M⁻¹; in test [5], 2.6e+08 M⁻¹. Besides, the figures for the dissociation rate constant (koff) in test [4] and in test [5] were 0.00026 s⁻¹ and 0.00021 s⁻¹, respectively. The figures for the kon in test [4] and in test [5] were 23000 M⁻¹ s⁻¹ and 53000 M⁻¹ s⁻¹, respectively.

Regarding “peroxidase conjugate of the clone 3F10 (antibody)”, in test [8], the amount still detected turned out to be 40 pg GST-HA.
